Key:
[1] = target: vBSP-2 anchored on carrier bacteria (human; Listeria monocytogenes) (UniProt P21815); test: flow cytometry of carrier bacteria displaying vBSP-2, before deactivation
[2] = target: eBSP tumor epitope fused to a bacterial carrier protein, anchored on carrier bacteria (human; Listeria monocytogenes); test: flow cytometry of carrier bacteria displaying the eBSP-carrier fusion (FIG. 7B)
[3] = target: vBSP-3 anchored on carrier bacteria (human; Listeria monocytogenes) (UniProt P21815); test: flow cytometry of deactivated carrier bacteria displaying vBSP-3, grown in minimal medium (FIG. 5B)
[4] = target: fusion peptide of pIUSind-mBSP6x anchored on Listeria (human; Listeria monocytogenes); test: flow cytometry of deactivated carrier bacteria displaying the 6-fold multimer (FIG. 11; rabbit tumor eBSP antiserum)
[5] = target: vBSP-4 anchored on carrier bacteria (human; Listeria monocytogenes) (UniProt P21815); test: flow cytometry of carrier bacteria displaying vBSP-4, before deactivation
[6] = target: fusion peptide of pIUSind-mBSP5x anchored on Listeria (human; Listeria monocytogenes); test: flow cytometry of carrier bacteria displaying the eBSP 5-fold multimer, before deactivation
[7] = target: vBSP-3 anchored on carrier bacteria (human; Listeria monocytogenes) (UniProt P21815); test: flow cytometry of carrier bacteria displaying vBSP-3, after deactivation
[8] = target: vBSP-3 anchored on carrier bacteria (human; Listeria monocytogenes) (UniProt P21815); test: flow cytometry of carrier bacteria displaying vBSP-3, before deactivation
[9] = target: fusion peptide of pIUSind-mBSP3x anchored on Listeria (human; Listeria monocytogenes) (UniProt Q723K6); test: flow cytometry of deactivated carrier bacteria displaying the 3-fold multimer (FIG. 11; rabbit tumor eBSP antiserum)
[10] = target: vBSP-2 anchored on carrier bacteria (human; Listeria monocytogenes) (UniProt P21815); test: flow cytometry of carrier bacteria displaying vBSP-2, after deactivation
[11] = target: vBSP-4 anchored on carrier bacteria (human; Listeria monocytogenes) (UniProt P21815); test: flow cytometry of carrier bacteria displaying vBSP-4, after deactivation
[12] = target: fusion peptide of pIUSind-mBSP5x anchored on Listeria (human; Listeria monocytogenes); test: flow cytometry of carrier bacteria displaying the eBSP 5-fold multimer, after deactivation
[13] = target: fusion peptide of pIUSind-mBSP5x anchored on Listeria (human; Listeria monocytogenes); test: flow cytometry of carrier bacteria displaying eBSP pentamer, BHI and minimal medium (FIG. 9, 10; tumor-epitope specific rabbit antibodies)
[14] = target: fusion peptide of pIUSind-mBSP5x anchored on Listeria (human; Listeria monocytogenes); test: flow cytometry of deactivated carrier bacteria displaying the 5-fold multimer (FIG. 11; rabbit tumor eBSP antiserum)
[15] = target: fusion peptide of pIUSind-mBSP6x anchored on Listeria (human; Listeria monocytogenes); test: flow cytometry of carrier bacteria displaying the eBSP 6-fold multimer, before deactivation
[16] = target: vBSP-3 anchored on carrier bacteria (human; Listeria monocytogenes) (UniProt P21815); test: flow cytometry of carrier bacteria displaying vBSP-3, grown in BHI and minimal media, before deactivation (FIG. 4A and B)
[17] = target: fusion peptide of pIUSind-mBSP1x anchored on Listeria (human; Listeria monocytogenes) (UniProt Q723K6); test: flow cytometry of carrier bacteria displaying eBSP monomer, BHI and minimal medium (FIG. 9, 10; tumor-epitope specific rabbit antibodies)
[18] = target: fusion peptide of pIUSind-mBSP4x anchored on Listeria (human; Listeria monocytogenes) (UniProt Q723K6); test: flow cytometry of deactivated carrier bacteria displaying the 4-fold multimer (FIG. 11; rabbit tumor eBSP antiserum)
[19] = target: fusion peptide of pIUSind-mBSP6x anchored on Listeria (human; Listeria monocytogenes); test: flow cytometry of carrier bacteria displaying the eBSP 6-fold multimer, after deactivation

Anti-Human Bone Sialoprotein (amino acids 108-122) Antibody, polyclonal antiserum, Immundiagnostik AG, Cat.-No. A4219.2, Lot H3150503
anchoring efficiency (proportion of positive bacteria in FACS) [1]: 58.4% | anchoring efficiency (proportion of positive bacteria in FACS) [2]: 6 to 7% | anchoring efficiency (proportion of positive bacteria in FACS) [3]: 41% | anchoring efficiency (proportion of positive bacteria in FACS) [4]: > 40% | anchoring efficiency (proportion of positive bacteria in FACS) [5]: 57.8% | anchoring efficiency (proportion of positive bacteria in FACS) [6]: 42.5% | anchoring efficiency (proportion of positive bacteria in FACS) [7]: 63.9% | anchoring efficiency (proportion of positive bacteria in FACS) [8]: 52.3% | anchoring efficiency (proportion of positive bacteria in FACS) [9]: > 40% | anchoring efficiency (proportion of positive bacteria in FACS) [10]: 65% | anchoring efficiency (proportion of positive bacteria in FACS) [11]: 67.8% | anchoring efficiency (proportion of positive bacteria in FACS) [12]: 40.1% | anchoring efficiency (proportion of positive bacteria in FACS) [13]: > 40% | anchoring efficiency (proportion of positive bacteria in FACS) [14]: > 40% | anchoring efficiency (proportion of positive bacteria in FACS) [15]: 34.2% | anchoring efficiency (proportion of positive bacteria in FACS) [16]: > 52% | anchoring efficiency (proportion of positive bacteria in FACS) [17]: < 10% | anchoring efficiency (proportion of positive bacteria in FACS) [18]: > 40% | anchoring efficiency (proportion of positive bacteria in FACS) [19]: 46.5%

— patent US20090142372A1
